Kd data for one molecule are collected here from US20070129537A1 (University of California, published 2007).

The target of this assay is T1, natural proline-rich peptide ligand C3G, PPPALPPKKR (peptide SEQ ID NO: 11).
T1 peptide: PPPALPPKKR-NH2
As to the kind of experiment: fluorescence-based titration (excitation 300 nm, emission 348 nm), 25 C, 0.5 uM protein, 1:1 complex assumed. As to the method:
The ligated product is marked with an asterisk. […] The ligation product was by far the main product and could be easily isolated by semipreparative HPLC. Referring to FIG. 6B, characterization of the product by ES-MS confirmed the identity of the SH3 ligated domain. The ligated SH3 domain was readily purified by HPLC and refolded by flash dilution in 20 mM sodium phosphate, 100 mM NaCl at pH 7.2. The ligand binding activity of the synthetic SH3 domain was evaluated using a fluorescence-based titration assay. […] Referring to FIG. 6C, the equilibrium dissociation constant for binding of the synthetic SH3 domain to the natural proline-rich peptide ligand C3G i.e., […] (peptide SEQ ID NO: 11), was 0.9 μM. […]
Fluorescence-based Ligand Binding Assay. The equilibrium dissociation binding constant of synthetic SH3 domain for ligand SEQ ID NO: 11 was obtained using a fluorescence-based titration assay. […] Excitation was at 300 nm with a 2.5 nm slit and the fluorescence emission was monitored at 348 nm through a 5 nm slit. […] The dissociation constant was determined by changes in the fluorescence of the protein solution upon addition of the corresponding peptide ligand at defined concentrations; calculations were made assuming formation of a 1:1 complex. […]

Ends that are not written are not given here.

B1: synthetic c-Crk N-terminal SH3 domain obtained by native chemical ligation of peptide thioester SEQ ID NO: 9 and peptide SEQ ID NO: 10 (other)
chain: AEYVRALFDFNGNDEEDLPFKKGCILRIRDKPEEQWWNAEDSEGKRGMIPVPYVEKYG
modifications: N-terminal acetyl (Ac-AEYV...); C-terminal amide implied (peptide SEQ ID NO: 10 made on Rink-amide resin); Cys introduced at the N-terminus of SEQ ID NO: 10 (ligation site); the -SEt thioester of SEQ ID NO: 9 is lost on ligation
notes: used at 0.5 uM in 20 mM sodium phosphate, 100 mM NaCl, pH 7.2; ESMS found 6894.1 Da (calculated 6891.7 Da); also called ligated SH3 domain; synthetic SH3 domain
Turning to B1, the affinity, expressed as Kd, was 900 nM.
